Columns and labels:
[1] = biological target: Leishmania tarentolae PP1-8e, endogenously HA-tagged; assay: co-IP (anti-protein A affinity resin, Western blot band quantification); details: parent: 1; read off a plot
[2] = biological target: LtPP1-8e D292A, Pd-tagged (Leishmania tarentolae); assay: co-IP; L. tarentolae cell extract; Pd-tagged PP1 (overexpressed from pSNSAP1) held on IgG Sepharose beads, 4 h at 4 °C, washed three times in PA-150 buffer; endogenously HA-tagged PNUTS detected by anti-HA Western blot; %IP relative to WT PP1-8e
[3] = biological target: LtPP1-8e CΔ11 (final 11 amino acids deleted), Pd-tagged (Leishmania tarentolae); assay: as above
[4] = biological target: LtPP1-8e 354–358A, Pd-tagged (Leishmania tarentolae); assay: as above
[5] = biological target: LtPP1-8e 109–134Δ (26 amino acid insertion deleted), Pd-tagged (Leishmania tarentolae); assay: as above
[6] = biological target: LtPP1-8e with ^310DHK^312 mutated to alanine, Pd-tagged (Leishmania tarentolae); assay: as above
[7] = biological target: LtPP1-8e 109–114A (GGVFG to alanine), Pd-tagged (Leishmania tarentolae); assay: as above
[8] = biological target: LtPP1-8e 263–265A, Pd-tagged (Leishmania tarentolae); assay: as above
[9] = biological target: LtPP1-8e 359 to 362A, Pd-tagged (Leishmania tarentolae); assay: as above
[10] = biological target: LtPP1-8e I217A, Pd-tagged (Leishmania tarentolae); assay: as above
[11] = biological target: LtPP1-8e D290A, Pd-tagged (Leishmania tarentolae); assay: as above
[12] = biological target: LtPP1-8e F305A, Pd-tagged (Leishmania tarentolae); assay: as above
[13] = biological target: LtPP1-8e with ^260LP^261 mutated to alanine, Pd-tagged (Leishmania tarentolae); assay: as above
[14] = biological target: LtPP1-8e I360A, Pd-tagged (Leishmania tarentolae); assay: as above
[15] = biological target: LtPP1-8e CΔ23 (23 amino acid C-terminal extension deleted), Pd-tagged (Leishmania tarentolae); assay: as above
[16] = biological target: Leishmania tarentolae PNUTS, endogenously HA-tagged; assay: co-IP (PP1-8e-Pd pull-down, Western blot band quantification); details: parent: 1; read off a plot
[17] = biological target: Leishmania tarentolae PNUTS, endogenously HA-tagged; assay: co-IP (anti-protein A affinity resin, Western blot band quantification); details: parent: 1; read off a plot
[18] = biological target: LtPNUTS D101A, Pd-tagged (Leishmania tarentolae); assay: co-IP; L. tarentolae cell extract; Pd-tagged PNUTS (overexpressed from pSNSAP1) held on IgG Sepharose beads, 4 h at 4 °C, washed three times in PA-150 buffer; endogenously HA-tagged PP1-8e, JBP3 or Wdr82 detected by anti-HA Western blot; %IP relative to WT PNUTS
[19] = biological target: LtPNUTS V97A, Pd-tagged (Leishmania tarentolae); assay: as above
[20] = biological target: LtPNUTS L111A, Pd-tagged (Leishmania tarentolae); assay: as above
[21] = biological target: LtPNUTS R94A, Pd-tagged (Leishmania tarentolae); assay: as above

Leishmania tarentolae PNUTS, Pd-tagged (WT, full-length) F118A
ratio to parent [1]: 0.22

Leishmania tarentolae PNUTS, Pd-tagged (WT, full-length) H114A; V115A
ratio to parent [1]: 0.17

Leishmania tarentolae PNUTS, Pd-tagged (WT, full-length) K95A
ratio to parent [1]: 1

Leishmania tarentolae PNUTS, Pd-tagged (WT, full-length) R125A
ratio to parent [1]: 0.92

Leishmania tarentolae PNUTS, Pd-tagged (WT, full-length) W99A
ratio to parent [1]: 0.08

Leishmania tarentolae PNUTS, endogenously HA-tagged (natural protein)
percent reduction of co-IP against WT PP1-8e [2]: 60% | percent reduction of co-IP against WT PP1-8e [3]: 30% | percent reduction of co-IP against WT PP1-8e [4]: 50% | percent reduction of co-IP against WT PP1-8e [5]: 80% | percent decrease of co-IP against WT PP1-8e [6]: 20% | percent reduction of co-IP against WT PP1-8e [7]: 80% | percent reduction of co-IP against WT PP1-8e [8]: 90% | percent reduction of co-IP against WT PP1-8e [9]: 80% | percent reduction of co-IP against WT PP1-8e [10]: 50% | percent reduction of co-IP against WT PP1-8e [11]: 50% | percent reduction of co-IP against WT PP1-8e [12]: 80% | percent of co-IP lost against WT PP1-8e [13]: 80% | percent reduction of co-IP against WT PP1-8e [14]: 80% | percent loss of co-IP against WT PP1-8e [15]: 80%

Leishmania tarentolae PP1-8e, Pd-tagged (WT) D116A; K118A; K119A; R121A
ratio to parent [16]: 0.79

Leishmania tarentolae PP1-8e, Pd-tagged (WT) D265A
ratio to parent [16]: 0.51

Leishmania tarentolae PP1-8e, Pd-tagged (WT) F307A
ratio to parent [17]: 0

Leishmania tarentolae PP1-8e, Pd-tagged (WT) I346A
ratio to parent [17]: 0.025

Leishmania tarentolae PP1-8e, Pd-tagged (WT) R314A
ratio to parent [17]: 0.01

Leishmania tarentolae PP1-8e, Pd-tagged (WT) S126A; D129A; D130A; Y133A; S134A
ratio to parent [16]: 0.84

Leishmania tarentolae PP1-8e, Pd-tagged (WT) T348A
ratio to parent [17]: 0.82

Leishmania tarentolae PP1-8e, Pd-tagged (WT) Y96A
ratio to parent [17]: 0.68

Leishmania tarentolae PP1-8e, endogenously HA-tagged (enzyme)
percent reduction of co-IP against WT PNUTS [18]: 80% | fold decrease of co-IP against WT PNUTS [19]: 5 fold | percent reduction of co-IP against WT PNUTS [20]: 80% | percent reduction of co-IP against WT PNUTS [21]: 50%
